In patent US20130251724A1 (GlaxoSmithKline, published 2013):
Values joined by “and” are separate entries in the source; they are usually repeats but may differ in a detail not shown here. Equal entries are not always repeated. Where two headings read alike, the source gives them in different places.

Tests used:
[1] = target: T1, Human OSM (human, UniProt P13725 26-221); experiment: BIAcore kinetics
T1 construct: Recombinant human OSM; also called hOSM; human Oncostatin M
T1 sequence: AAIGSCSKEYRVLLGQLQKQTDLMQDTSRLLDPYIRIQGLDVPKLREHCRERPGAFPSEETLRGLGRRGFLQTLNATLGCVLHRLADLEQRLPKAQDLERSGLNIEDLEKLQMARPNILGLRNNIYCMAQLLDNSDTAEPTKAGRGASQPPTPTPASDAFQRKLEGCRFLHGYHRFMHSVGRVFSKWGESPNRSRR

[2] = target: T2, Cynomolgus OSM (cynomolgus, UniProt A0A2K5VPC6 26-221); experiment: BIAcore kinetics
T2 construct: also called Cyno OSM; cynomolgus macaque OSM
T2 sequence: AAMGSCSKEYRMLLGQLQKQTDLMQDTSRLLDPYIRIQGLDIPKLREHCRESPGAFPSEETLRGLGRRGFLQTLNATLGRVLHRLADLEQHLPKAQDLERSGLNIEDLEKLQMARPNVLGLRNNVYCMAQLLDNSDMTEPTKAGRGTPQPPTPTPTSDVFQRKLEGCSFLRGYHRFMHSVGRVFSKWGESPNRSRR

[3] = target: T1, Human OSM; experiment: BIAcore kinetics; remark: listed apart in the source
[4] = target: T2, Cynomolgus OSM; experiment: BIAcore kinetics; remark: listed apart in the source
[5] = target: T1, Human OSM; experiment: cell-based or functional assay
[6] = target: T2, Cynomolgus OSM; experiment: cell-based or functional assay
[7] = target: T1, Human OSM; experiment: cell-based or functional assay; remark: listed apart in the source
[8] = target: T2, Cynomolgus OSM; experiment: cell-based or functional assay; remark: listed apart in the source
[9] = target: T1, Human OSM; experiment: cell-based or functional assay; remark: listed apart in the source
[10] = target: T1, Human OSM; experiment: human gp130 ELISA, inhibition of OSM binding to gp130
[11] = target: T2, Cynomolgus OSM; experiment: as above
[12] = target: T1, Human OSM; experiment: as above; remark: listed apart in the source
[13] = target: T2, Cynomolgus OSM; experiment: as above; remark: listed apart in the source
[14] = target: T3, Endogenous human OSM (neutrophil-derived) (human, UniProt P13725 26-221, limits assumed); experiment: gp130 ELISA with endogenous neutrophil-derived human OSM
T3 construct: Native OSM generated from GM-CSF stimulation of healthy human neutrophils; also called native OSM; endogenous OSM
T3 sequence: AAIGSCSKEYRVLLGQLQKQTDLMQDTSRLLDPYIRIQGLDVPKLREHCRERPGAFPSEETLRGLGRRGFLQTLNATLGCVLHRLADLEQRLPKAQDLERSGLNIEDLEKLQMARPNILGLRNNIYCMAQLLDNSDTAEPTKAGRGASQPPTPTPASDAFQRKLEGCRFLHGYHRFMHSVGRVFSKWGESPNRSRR

[15] = target: T1, Human OSM; experiment: cell-based or functional assay; remark: listed apart in the source
[16] = target: T2, Cynomolgus OSM; experiment: cell-based or functional assay; remark: listed apart in the source
[17] = target: T1, Human OSM; experiment: cell-based or functional assay; remark: listed apart in the source
[18] = target: T2, Cynomolgus OSM; experiment: cell-based or functional assay; remark: listed apart in the source
[19] = target: Marmoset OSM (marmoset); experiment: cell-based or functional assay
[20] = target: T1, Human OSM; experiment: BIAcore kinetics, purified antibody
[21] = target: T1, Human OSM; experiment: BIAcore kinetics, purified antibody; remark: listed apart in the source
[22] = target: T2, Cynomolgus OSM; experiment: BIAcore kinetics, purified antibody
[23] = target: T1, Human OSM; experiment: BIAcore kinetics, purified antibody; remark: listed apart in the source
[24] = target: T2, Cynomolgus OSM; experiment: BIAcore kinetics, purified antibody; remark: listed apart in the source
[25] = target: T1, Human OSM; experiment: BIAcore kinetics, transfection supernatant
[26] = target: T3, Endogenous human OSM …; experiment: gp130 ELISA with endogenous neutrophil-derived human OSM; remark: listed apart in the source
[27] = target: T1, Human OSM; experiment: direct ELISA, human OSM coated at 1 µg/ml, detection with anti-human IgG
Experimental: Both the 10G8 and 9G2 chimaeras successfully bound to human OSM, to a greater extent than 15E10chimera (15E10c) (FIG. 11). This was a direct ELISA where human OSM was coated at 1 μg/ml and bound antibodies detected using anti-human IgG.

[28] = target: T1, Human OSM; experiment: cell-based or functional assay; remark: listed apart in the source
[29] = target: T2, Cynomolgus OSM; experiment: cell-based or functional assay; remark: listed apart in the source
[30] = target: T1, Human OSM; experiment: BIAcore kinetics, purified antibody; remark: listed apart in the source
[31] = target: T2, Cynomolgus OSM; experiment: BIAcore kinetics, purified antibody; remark: listed apart in the source
[32] = target: T1, Human OSM; experiment: BIAcore kinetics, transfection supernatant; remark: listed apart in the source
[33] = target: T2, Cynomolgus OSM; experiment: BIAcore kinetics, transfection supernatant

B1: 9G2, murine anti-OSM mAb (antibody, V domains shown)
VH: EVQLVESGGGLVEPGGSLKLSCAASGFTFSNYAMSWVRQTPEKRLEWVATISDGGSFTYYLDNVKGRFTISRDNAKNNLYLQMSHLKSDDTAMYYCARDVGHTTFWYFDVWGTGTTVTVSS
VL: DIVLTQSPVFLVISLGQRATISCRASKSVSASGYNFMHWYQQKPGQPPKVLIKYASNLESGVPARFSGSGSGTDFTLNIHPVEEEDAVTYYCQHSREFPFTFGGGTKLEIK
notes: Mouse hybridoma mAb; also called 9G2/C1; 9G2.C1
Kd [1]: 1600 pM
Kd [2]: 750 pM
Kd [3]: 1600 pM
koff [3]: 0.000121 s⁻¹
kon [3]: 75200 M⁻¹ s⁻¹
Kd [4]: 775 pM
koff [4]: 4.76e-05 s⁻¹
kon [4]: 61400 M⁻¹ s⁻¹
KB cell neutralisation assay, mean IC50 [5]: 0.018 µg/ml and 120 pM
KB cell neutralisation assay, mean IC50 [6]: 100 pM and 0.015 µg/ml
KB cell neutralisation assay, mean IC50 [7]: 0.163 µg/ml and 1.1 nM
KB cell neutralisation assay, mean IC50 [8]: 0.046 µg/ml and 307 pM
IC50 (read off the curve); IL-6 release from KB cells stimulated with human OSM, 25% human AB serum [9]: ~0.03 µg/mL
IC50 [10]: 0.16 µg/mL and 1.1 nM
IC50 [11]: 0.03 µg/mL and 0.2 nM
IC50 [12]: 0.038 µg/mL and 0.253 nM
IC50 [13]: 0.049 µg/mL and 0.327 nM
IC50 [14]: 0.02 µg/mL and 0.133 nM

B2: 10G8 chimaera (antibody, human IgG1, kappa, V domains shown)
VH: EMQLVESGEGLVEPGGSLKLSCAASGFTFSNYAMSWVRQTPEKSLEWVATISDGGSFTYYLDNVRGRFTISRDNAKNNLYLQMSHLKSDDTAMYYCARDVGHTTFWYFDVWGSGTLVTVSS
VL: DIVLTQSPVFLVVSLGQRATISCRASKSVSAAGYNFMHWYQQKPGQPPKVLIKYASNLESGVPARFSGSGSGTDFTLNIHPVEEEDAVTYYCLHSREFPFTFGGGTNLEIKR
notes: Mouse V regions on human gamma 1 wild type and human kappa constant regions; the entries called VH/VL domain (chimera) are full chains; also called 10G8 chimera; 10G8 Chimæra
Kd [3]: 654 pM
koff [3]: 0.000152 s⁻¹
kon [3]: 233000 M⁻¹ s⁻¹
Kd [4]: 480 pM
koff [4]: 0.000114 s⁻¹
kon [4]: 237000 M⁻¹ s⁻¹
KB cell neutralisation assay, mean IC50 [7]: 0.021 µg/ml and 140 pM
KB cell neutralisation assay, mean IC50 [8]: 0.008 µg/ml and 53 pM
KB cell neutralisation assay, mean IC50 [15]: 0.022 µg/ml and 144 pM
KB cell neutralisation assay, mean IC50 [16]: 0.008 µg/ml and 100 pM
KB cell neutralisation assay, mean IC50 [17]: 0.0052 µg/ml and 35 pM
KB cell neutralisation assay, mean IC50 [18]: 0.0011 µg/ml and 7 pM
KB cell neutralisation assay, mean IC50 [19]: 0.0271 µg/ml and 181 pM
Kd [20]: 407 pM
koff [20]: 0.000105 s⁻¹
kon [20]: 257000 M⁻¹ s⁻¹
Kd [21]: 518 pM
koff [21]: 0.000125 s⁻¹
kon [21]: 241000 M⁻¹ s⁻¹
Kd [22]: 394 pM
koff [22]: 9.95e-05 s⁻¹
kon [22]: 253000 M⁻¹ s⁻¹
Kd [23]: 184 pM
koff [23]: 7.87e-05 s⁻¹
kon [23]: 427000 M⁻¹ s⁻¹
Kd [24]: 266 pM
koff [24]: 6.63e-05 s⁻¹
kon [24]: 250000 M⁻¹ s⁻¹
Kd [25]: 407 pM
koff [25]: 0.000103 s⁻¹
kon [25]: 252000 M⁻¹ s⁻¹
IC50 [12]: 0.037 µg/mL and 0.247 nM
IC50 [13]: 0.016 µg/mL and 0.107 nM
IC50 [14]: 0.009 µg/mL and 0.06 nM
IC50 [26]: 0.0091 µg/mL and 0.061 nM
EC50 (read off the curve) [27]: ~200 pM

B3: 9G2 chimaera (antibody, human IgG1, kappa, V domains shown)
VH: EVQLVESGGGLVEPGGSLKLSCAASGFTFSNYAMSWVRQTPEKRLEWVATISDGGSFTYYLDNVKGRFTISRDNAKNNLYLQMSHLKSDDTAMYYCARDVGHTTFWYFDVWGTGTLVTVSS
VL: DIVLTQSPVFLVISLGQRATISCRASKSVSASGYNFMHWYQQKPGQPPKVLIKYASNLESGVPARFSGSGSGTDFTLNIHPVEEEDAVTYYCQHSREFPFTFGGGTKLEIKR
notes: Mouse V regions on human gamma 1 wild type and human kappa constant regions; also called 9G2 chimera
Kd [3]: 1330 pM
koff [3]: 0.000168 s⁻¹
kon [3]: 126000 M⁻¹ s⁻¹
Kd [4]: 787 pM
koff [4]: 9.99e-05 s⁻¹
kon [4]: 127000 M⁻¹ s⁻¹
KB cell neutralisation assay, mean IC50 [7]: 0.231 µg/ml and 1.5 nM
KB cell neutralisation assay, mean IC50 [8]: 0.031 µg/ml and 207 pM
IC50 [12]: 0.078 µg/mL and 0.52 nM
IC50 [13]: 0.028 µg/mL and 0.187 nM
IC50 [14]: 0.017 µg/mL and 0.113 nM
EC50 (read off the curve) [27]: ~400 pM

B4: Humanised 10G8 H0L1 (antibody, human IgG1, kappa, V domains shown)
VH: EVQLVESGGGLVQPGGSLRLSCAASGFTFSNYAMSWVRQAPGKGLEWVATISDGGSFTYYLDNVRGRFTISRDNAKNSLYLQMNSLRAEDTAVYYCARDVGHTTFWYFDVWGRGTLVTVSS
VL: DIVMTQSPDSLAVSLGERATINCRASKSVSAAGYNFMHWYQQKPGQPPKVLIYYASNLESGVPDRFSGSGSGTDFTLTISSLQAEDVAVYYCLHSREFPFTFGGGTKVEIKR
notes: IgG1 kappa; mature H0 heavy chain and mature L1 light chain; also called Humanised 10G8 H0L1 parent
KB cell neutralisation assay, mean IC50 [15]: 0.015 µg/ml and 102 pM
KB cell neutralisation assay, mean IC50 [16]: 0.007 µg/ml and 21 pM
KB cell neutralisation assay, mean IC50 [28]: 0.009 µg/ml and 60 pM
KB cell neutralisation assay, mean IC50 [29]: 0.007 µg/ml and 47 pM
KB cell neutralisation assay, mean IC50 [17]: 0.0028 µg/ml and 19 pM
KB cell neutralisation assay, mean IC50 [18]: 0.0014 µg/ml and 9 pM
KB cell neutralisation assay, mean IC50 [19]: 0.0017 µg/ml and 11 pM
Kd [21]: 355 pM
koff [21]: 0.000137 s⁻¹
kon [21]: 387000 M⁻¹ s⁻¹
Kd [22]: 251 pM
koff [22]: 0.000107 s⁻¹
kon [22]: 426000 M⁻¹ s⁻¹
Kd [30]: 445 pM
koff [30]: 0.000151 s⁻¹
kon [30]: 340000 M⁻¹ s⁻¹
Kd [31]: 341 pM
koff [31]: 0.000115 s⁻¹
kon [31]: 338000 M⁻¹ s⁻¹
Kd [23]: 125 pM
koff [23]: 8.9e-05 s⁻¹
kon [23]: 712000 M⁻¹ s⁻¹
Kd [24]: 195 pM
koff [24]: 8.31e-05 s⁻¹
kon [24]: 427000 M⁻¹ s⁻¹
Kd [25]: 250 pM
koff [25]: 9.95e-05 s⁻¹
kon [25]: 398000 M⁻¹ s⁻¹
Kd [32]: 461 pM
koff [32]: 0.000153 s⁻¹
kon [32]: 332000 M⁻¹ s⁻¹
Kd [33]: 301 pM
koff [33]: 0.000104 s⁻¹
kon [33]: 345000 M⁻¹ s⁻¹
IC50 [26]: 0.0058 µg/mL and 0.039 nM

B5: 3E3, murine anti-OSM mAb (antibody, V domains shown)
VH: EVQLVESGGDLVKPGGSLKLSCVPSGFTFSSYAMSWVRQTPEKRLEWVATISDGGSFTYYFANIQGRFTISRDNTKNNLYLQMNHLKSEDAGMYYCARDVGLTTFWYFDVWGTGTTVTVSS
VL: DIVLTQSPASLTISLGQRATISCRASKSVSPSGYDFMHWYQQKPGQPPKLLIKYASELESGVPGRFSGSGSGTDFTLNIHPVEEEDAATYFCQHSREFPFTFGGGTKLEIK
notes: Mouse hybridoma mAb; also called 3E3/A1; 3E3.A1
Kd [1]: 1300 pM
Kd [2]: 3280 pM
KB cell neutralisation assay, mean IC50 [5]: 0.054 µg/ml and 360 pM
KB cell neutralisation assay, mean IC50 [6]: 0.15 µg/ml and 1 nM
IC50 [10]: 0.19 µg/mL and 1.3 nM
IC50 [11]: 0.06 µg/mL and 0.4 nM
